Results on one protein are retold here after article PMC6108936 (Cell, 2018).

The data set deals with the molecule itself. Description: cryo-EM structure.

B1: Cps25 (natural protein, Saccharomyces cerevisiae, UniProt Q03323 1-175, looked up)
chain: MNESENSPQHNEVTVPMVEDTSSNADIPMEQIQREDNKNYDKHDNECFDMNGNHNNNSDNLQFDSVPSSATKDLKNIKSVTNQNVKIEESSSTNSVIEESSEPKISKLENVNLAATVGGSQTRKYLNTNVTPHLLAGMRLIAVQQPEDPLRVLGEYLIEQSNILKSGEKESNASK
Consider B1, for which the binding result was “binds”.
